Test results from patent US20180057604A1 (Genentech, published 2018).
Residue numbers refer to the chain shown, from its start. Numbers in names are those of the source. Like-named read-outs stand apart in the source and are kept apart here. Each block holds one binder with its values, some of them ahead of it.

What was measured:
[1] = target: T1, human BACE1 (R&D Systems) (human, UniProt P56817); experiment: SPR (Biacore)
T1 construct: recombinant, commercial (R&D Systems)
Method: Binding affinities of certain anti-BACE1 IgGs were measured by surface plasmon resonance (SRP) using a BIAcore™-T100 instrument. […] Association rates (kon) and dissociation rates (koff) were calculated using a simple one-to-one Langmuir binding model (BIAcore Evaluation Software version 3.2). The equilibrium dissociation constant (KD) was calculated as the ratio koff/kon.

[2] = target: T2, BACE1 in primary mouse cortical neurons (mouse, UniProt P56818 46-501); experiment: cell-based or functional assay
T2 sequence (P56818 46-501): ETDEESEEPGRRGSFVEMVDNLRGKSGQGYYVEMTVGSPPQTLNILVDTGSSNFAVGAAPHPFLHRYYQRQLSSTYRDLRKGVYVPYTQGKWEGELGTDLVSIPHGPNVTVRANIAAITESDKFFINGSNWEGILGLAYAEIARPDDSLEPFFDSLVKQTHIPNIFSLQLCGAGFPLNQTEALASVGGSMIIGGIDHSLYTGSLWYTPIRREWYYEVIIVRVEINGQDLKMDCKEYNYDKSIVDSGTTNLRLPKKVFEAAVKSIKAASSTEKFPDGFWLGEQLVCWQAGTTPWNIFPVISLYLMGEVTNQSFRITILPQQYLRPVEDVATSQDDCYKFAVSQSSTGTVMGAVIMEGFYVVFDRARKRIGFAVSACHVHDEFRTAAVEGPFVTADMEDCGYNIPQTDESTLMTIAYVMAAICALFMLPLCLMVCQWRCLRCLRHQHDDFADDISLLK

[3] = target: T2, BACE1 in primary mouse cortical neurons; experiment: cell-based or functional assay; remark: listed apart in the source
murine BACE1 ECD [4] = target: T3, murine BACE1 ECD; experiment: Octet, pH 5.0;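 note: antibodies captured on anti-human capture sensor tips, dissociation monitored in PBS with BSA buffer, kinetics fitted with a one-to-one binding model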
T3 construct: analyte of the Octet assay (200 nM) and enzyme of the first short substrate assay
T3 sequence (single chain, as listed by the source limits assumed): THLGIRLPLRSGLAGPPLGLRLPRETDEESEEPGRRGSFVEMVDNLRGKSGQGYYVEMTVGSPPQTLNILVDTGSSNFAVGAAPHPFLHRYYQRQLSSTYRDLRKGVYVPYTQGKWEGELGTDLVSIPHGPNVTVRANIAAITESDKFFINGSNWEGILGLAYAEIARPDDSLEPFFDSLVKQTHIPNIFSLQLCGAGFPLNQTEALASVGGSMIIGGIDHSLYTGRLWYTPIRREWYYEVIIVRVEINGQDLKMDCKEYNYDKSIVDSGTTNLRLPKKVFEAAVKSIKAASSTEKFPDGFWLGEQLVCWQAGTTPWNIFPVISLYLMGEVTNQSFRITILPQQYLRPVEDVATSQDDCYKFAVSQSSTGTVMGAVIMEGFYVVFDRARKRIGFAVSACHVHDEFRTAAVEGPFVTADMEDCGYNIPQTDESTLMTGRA
Method: (§1) Anti-BACE1 antibodies were loaded onto anti-human capture (AHC) sensors (tips) followed by 60 seconds baseline in assay buffer. […] Tips were transferred to assay buffer for 5 minutes, 30 minutes, or 120 minutes depending on the off-rate, for off-rate measurement. Assay buffer was either PBS+0.1% BSA, pH 7.5; or PBS+0.1% BSA, pH 5.0. Kinetics were analyzed using a 1:1 binding model.

human BACE1 ECD [5] = target: T4, human BACE1 ECD; experiment: Octet, pH 5.0;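 note: antibodies captured on anti-human capture sensor tips, dissociation monitored in PBS with BSA buffer, kinetics fitted with a one-to-one binding model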
T4 construct: analyte of the Octet assay (200 nM) and enzyme of the first short substrate assay; also called human BACE1 extracellular domain
T4 sequence (single chain, as listed by the source limits assumed): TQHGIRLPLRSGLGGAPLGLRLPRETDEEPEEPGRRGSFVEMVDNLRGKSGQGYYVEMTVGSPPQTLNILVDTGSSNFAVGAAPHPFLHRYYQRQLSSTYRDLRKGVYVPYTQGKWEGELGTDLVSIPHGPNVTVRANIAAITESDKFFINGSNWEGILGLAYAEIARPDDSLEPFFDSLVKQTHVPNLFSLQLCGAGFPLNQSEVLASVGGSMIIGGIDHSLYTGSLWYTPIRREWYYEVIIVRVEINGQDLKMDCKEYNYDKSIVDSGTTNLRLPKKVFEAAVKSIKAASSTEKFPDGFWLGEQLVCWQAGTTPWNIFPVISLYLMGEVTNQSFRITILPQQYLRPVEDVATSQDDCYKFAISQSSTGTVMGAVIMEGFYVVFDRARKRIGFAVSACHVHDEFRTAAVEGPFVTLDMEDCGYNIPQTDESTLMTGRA
Method: as §1

murine BACE1 ECD [6] = target: T3, murine BACE1 ECD; experiment: Octet, pH 7.5;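 note: antibodies captured on anti-human capture sensor tips, dissociation monitored in PBS with BSA, Kd obtained from kinetic fit to a one-to-one binding model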
Method: as §1

human BACE1 ECD [7] = target: T4, human BACE1 ECD; experiment: Octet, pH 7.5;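 note: antibodies captured on anti-human capture sensor tips, dissociation monitored in PBS with BSA, Kd obtained from kinetic fit to a one-to-one binding model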
Method: as §1

[8] = target: T5, human TfR, full length, on cells (human, UniProt P02786 1-760); experiment: FACS, 293 cells, 1 uM holo-Tf
T5 construct: also called human TfR transiently expressed in 293 cells; TfR on HEL cells
Method: (§2) Briefly, FACS analysis was performed using 293 cells transfected with full length human or cyno TfR using lipofectamin 2000 plus (Invitrogen) 48-72 h before FACS analysis. […] Cells were washed twice with FACS buffer, 50 μl of PE-Goat-anti-murine Fcγ (Jackson ImmunoResearch) was added to cells and they were incubated on ice for 30 min. Cells were washed with FACS buffer and resuspended in 100 μl FACS buffer for analysis.

[9] = target: T6, human TfR extracellular domain with N-terminal His tag (human, UniProt P02786 89-760); experiment: ELISA
T6 construct: Biotinylated in some assays; also called huTfR; HuTfR
Target sequence in this assay (P02786 89-760 G142S): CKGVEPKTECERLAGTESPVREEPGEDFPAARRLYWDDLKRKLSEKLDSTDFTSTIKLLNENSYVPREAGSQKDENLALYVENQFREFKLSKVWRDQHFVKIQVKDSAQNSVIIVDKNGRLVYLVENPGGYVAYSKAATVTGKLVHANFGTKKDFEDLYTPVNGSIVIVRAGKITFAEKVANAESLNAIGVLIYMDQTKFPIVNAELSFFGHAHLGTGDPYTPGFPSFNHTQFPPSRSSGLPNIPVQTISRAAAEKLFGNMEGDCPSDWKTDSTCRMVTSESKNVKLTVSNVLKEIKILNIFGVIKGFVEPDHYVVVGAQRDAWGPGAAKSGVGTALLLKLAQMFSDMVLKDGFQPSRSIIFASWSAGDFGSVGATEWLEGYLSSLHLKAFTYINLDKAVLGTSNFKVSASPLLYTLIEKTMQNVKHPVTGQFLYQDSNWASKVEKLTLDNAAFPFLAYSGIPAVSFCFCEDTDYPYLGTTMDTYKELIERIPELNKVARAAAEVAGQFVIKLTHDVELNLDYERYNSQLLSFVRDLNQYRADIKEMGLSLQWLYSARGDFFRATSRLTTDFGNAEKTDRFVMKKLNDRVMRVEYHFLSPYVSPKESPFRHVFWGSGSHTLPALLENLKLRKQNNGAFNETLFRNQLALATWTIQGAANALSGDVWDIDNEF

[10] = target: T6, human TfR extracellular domain with …; experiment: SPR steady state, IgG
Target sequence in this assay (P02786 89-760 G142S): as above
Method: (§3) Antibody affinities were measured using surface plasmon resonance (“SPR”) (Biacore™, GE Healthcare). Anti-His antibody (Qiagen) was coupled onto four different flow cells of a BIACORE™ CM5 sensor chip (Biacore, Inc., Piscataway, N.J.) at between 6000 and 8000 RU. Immobilization was achieved by random coupling through amino groups using a protocol provided by the manufacturer. 10×HBS-P (Biacore, Inc., Piscataway, N.J.) was diluted in water and served as the dilution and running buffer. Purified human or cyno TfR was captured, followed by a 3-fold dilution series of IgG or Fab that was injected at a flow rate of 30 ml/min using the single cycle kinetics method. Affinity constants were determined using a simple 1:1 Langmuir binding model or using a steady state model when kₒₙ or koff was beyond the detection limit. The equilibrium dissociation constant (KD) was calculated as the ratio of association rate constant (kₒₙ) and dissociation rate constant (koff).
(§4) These variants were screened as IgG by ELISA and SPR to identify positions important for binding to human and cyno TfR; the monovalent affinity of selected variants as Fab was also determined. […] Plates were washed with PBS/0.05% Tween 20 and blocked using Superblock blocking buffer in PBS (Thermo Scientific, Hudson, N.H.). Supernatants containing expressed IgG were diluted serially 1:5 and added to the plate for 1 h. […] Plates were washed with PBS/0.05% Tween 20 and 1:1000 diluted HRP-Goat-anti kappa (Southern Biotech) was added the plate and incubated for 1 h at room temperature. Plates were washed with PBS/0.05% Tween 20 and detected using TMB substrate (BioFX Laboratories, Owings Mills). Binding was also assessed by SPR, as described above.

[11] = target: T7, cyno TfR extracellular domain (analogous construct to human TfR ecd) (cynomolgus monkey, UniProt Q5RDH6 87-760 (Pongo abelii entry)); experiment: SPR steady state, IgG
T7 construct: also called cynoTfR ecd
T7 chain: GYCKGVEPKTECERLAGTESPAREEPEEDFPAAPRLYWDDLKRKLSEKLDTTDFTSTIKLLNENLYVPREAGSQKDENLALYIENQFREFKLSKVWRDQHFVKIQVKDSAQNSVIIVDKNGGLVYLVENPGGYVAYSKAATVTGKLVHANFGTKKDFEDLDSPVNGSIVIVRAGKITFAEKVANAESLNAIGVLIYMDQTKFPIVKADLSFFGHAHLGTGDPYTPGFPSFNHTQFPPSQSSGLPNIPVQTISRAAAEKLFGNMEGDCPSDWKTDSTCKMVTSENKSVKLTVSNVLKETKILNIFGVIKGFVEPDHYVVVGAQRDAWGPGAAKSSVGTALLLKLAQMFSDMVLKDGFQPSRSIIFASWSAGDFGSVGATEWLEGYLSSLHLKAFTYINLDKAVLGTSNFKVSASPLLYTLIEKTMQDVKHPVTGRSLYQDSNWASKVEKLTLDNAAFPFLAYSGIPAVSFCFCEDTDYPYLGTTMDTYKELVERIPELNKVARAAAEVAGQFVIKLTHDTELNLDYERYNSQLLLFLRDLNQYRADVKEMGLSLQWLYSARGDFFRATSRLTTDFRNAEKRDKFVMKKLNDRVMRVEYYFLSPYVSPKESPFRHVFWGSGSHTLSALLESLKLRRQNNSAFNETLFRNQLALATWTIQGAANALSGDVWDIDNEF
Method: as §3, §4

[12] = target: T6, human TfR extracellular domain with …; experiment: SPR SCK 1:1 fit, IgG
Target sequence in this assay (P02786 89-760 G142S): as the sequence (P02786 89-760 G142S) above
Method: as §3, §4

[13] = target: T7, cyno TfR extracellular domain …; experiment: SPR SCK 1:1 fit, IgG
Method: as §3, §4

[14] = target: T6, human TfR extracellular domain with …; experiment: ELISA, IgG
Target sequence in this assay (P02786 89-760 G142S): as the sequence (P02786 89-760 G142S) above
Method: (§5) Affinity variants were generated by making individual alanine substitutions in CDR-L3 or CDR-H3 using standard techniques. These variants were screened as IgG by ELISA and SPR to identify positions important for binding to human and cyno TfR; the monovalent affinity of selected variants as Fab was also determined. […] Plates were washed with PBS/0.05% Tween 20 and blocked using Superblock blocking buffer in PBS (Thermo Scientific, Hudson, N.H.). Supernatants containing expressed IgG were diluted serially 1:5 and added to the plate for 1 h. […] Plates were washed with PBS/0.05% Tween 20 and 1:1000 diluted HRP-Goat-anti kappa (Southern Biotech) was added the plate and incubated for 1 h at room temperature. Plates were washed with PBS/0.05% Tween 20 and detected using TMB substrate (BioFX Laboratories, Owings Mills).

[15] = target: T7, cyno TfR extracellular domain …; experiment: ELISA, IgG
Method: as §5

[16] = target: T6, human TfR extracellular domain with …; experiment: SPR, TfR captured by anti-His, Fab injected;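 note: single cycle kinetics with a Fab dilution series, fitted by a one-to-one Langmuir model or a steady state model, KD taken as koff over kon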
Target sequence in this assay (P02786 89-760 G142S): as the sequence (P02786 89-760 G142S) above
Method: as §3
(§6) In both cases, the SPR experiments were performed as described above.

[17] = target: T7, cyno TfR extracellular domain …; experiment: SPR, TfR captured by anti-His, Fab injected;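 note: single cycle kinetics with a Fab dilution series, fitted by a one-to-one Langmuir model or a steady state model, KD taken as koff over kon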
Method: as §3, §6

[18] = target: T6, human TfR extracellular domain with …; experiment: SPR, Fab
Method: as §3, §4

[19] = target: T7, cyno TfR extracellular domain …; experiment: SPR, Fab
Method: as §3, §4

[20] = target: T7, cyno TfR extracellular domain …; experiment: SPR, KD on cyno TfR over KD on human TfR
Method: as §3, §6

[21] = target: T5, human TfR, full length, on cells; experiment: FACS, 293 cells, 1 uM holo-Tf; remark: listed apart in the source
Method: as §2

[22] = target: T6, human TfR extracellular domain with …; experiment: ELISA, immobilized huTfR, with and without 6.3 uM holo-Tf
Method: Plates were washed with PBS/0.05% Tween 20 and blocked using Superblock blocking buffer in PBS (Thermo Scientific, Hudson, N.H.). […] Plates were washed with PBS/0.05% Tween 20 and 1:1000 diluted HRP-Goat-anti human Fcγ (Jackson ImmunoResearch) was added to the plate and incubated for 1 h at room temperature. Plates were washed with PBS/0.05% Tween 20 and detected using TMB substrate (BioFX Laboratories, Owings Mills).

[23] = target: T6, human TfR extracellular domain with …; experiment: SPR SCK 1:1 fit, IgG; remark: listed apart in the source
Method: as §3, §4

[24] = target: T7, cyno TfR extracellular domain …; experiment: SPR SCK 1:1 fit, IgG
Method: as §3, §4

[25] = target: T6, human TfR extracellular domain with …; experiment: SPR, IgG;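 note: His-tagged TfR captured via immobilized anti-His antibody on a CM5 chip, antibody injected in 3-fold dilution series by single cycle kinetics, 1:1 Langmuir or steady-state fit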
Target sequence in this assay (P02786 89-760 G142S): as the sequence (P02786 89-760 G142S) above
Method: as §3, §6

[26] = target: T7, cyno TfR extracellular domain …; experiment: SPR, IgG;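 note: His-tagged TfR captured via immobilized anti-His antibody on a CM5 chip, antibody injected in 3-fold dilution series by single cycle kinetics, 1:1 Langmuir or steady-state fit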
Method: as §3, §6

[27] = target: T6, human TfR extracellular domain with …; experiment: ELISA, IgG; remark: listed apart in the source
Method: as §5

[28] = target: T7, cyno TfR extracellular domain …; experiment: ELISA, IgG
Method: as §5

T1 sequence (P56817 22-457 limits assumed): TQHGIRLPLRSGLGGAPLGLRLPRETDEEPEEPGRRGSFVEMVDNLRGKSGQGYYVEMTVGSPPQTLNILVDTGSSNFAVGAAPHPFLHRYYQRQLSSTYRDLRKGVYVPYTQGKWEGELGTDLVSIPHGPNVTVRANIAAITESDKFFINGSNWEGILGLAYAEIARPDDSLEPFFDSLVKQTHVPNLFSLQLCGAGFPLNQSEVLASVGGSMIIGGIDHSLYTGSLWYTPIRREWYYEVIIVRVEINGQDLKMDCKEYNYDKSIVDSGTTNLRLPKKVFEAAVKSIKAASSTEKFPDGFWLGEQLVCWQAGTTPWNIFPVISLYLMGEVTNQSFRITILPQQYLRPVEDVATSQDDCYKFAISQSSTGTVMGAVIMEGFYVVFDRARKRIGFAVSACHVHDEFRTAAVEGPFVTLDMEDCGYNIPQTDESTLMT

B1: anti-BACE1 antibody 6266 (antibody, V domains shown)
VH: EVQLVQSGAEVKKPGSSVKVSCKASGGTLSGYGVSWVRQAPGQGLEWMGNIIPGFGTANYAQKFQGRVTITADESTSTAYMELSSLRSEDTAVYYCARSGGTKYGMLDVWGQGTMVTVSS
VL: EIVMTQSPATLSVSPGERATLSCRASQSVSSNLAWYQQKPGQAPRLLIYGASTRATGIPARFSGSGSGTEFTLTISSLQSEDFAVYYCQQLILWPPRTFGGGTKVEIK
notes: Fully human antibody
Kd [1]: 1.12 nM | IC50, Abeta x-40 in mouse cortical neurons [2]: 1.66 nM | maximal % inhibition of Abeta x-40 [2]: 87% | IC50, inhibition of Abeta x-40 production in primary mouse cortical neurons [3]: 1.7 nM | Kd (murine BACE1 ECD [4]): 0.32 nM | Kd (human BACE1 ECD [5]): < 0.24 nM | Kd (murine BACE1 ECD [6]): < 0.31 nM | Kd (human BACE1 ECD [7]): < 0.3 nM

B4: G93A (antibody, V domains shown)
VH: EVQLVQSGAEVKKPGASVKVSCKASGYTFTSYWMHWVRQAPGQRLEWIGEINPTNGRTNYIEKFKSRATLTVDKSASTAYMELSSLRSEDTAVYYCARGTRAYHYWGQGTMVTVSS
VL: DIQMTQSPSSLSASVGDRVTITCRASDNLYSNLAWYQQKPGKSPKLLVYDATNLADGVPSRFSGSGSGTDYTLTISSLQPEDFATYYCQHFWATPLTFGQGTKVEIK
notes: also called 15G11.v5 G93A (CDR-L3) IgG
Kd [10]: 150 nM | Kd [11]: 412 nM | Kd [12]: 40 nM | Kd [13]: 61 nM | EC50 [14]: 0.0145 µg/mL | EC50 [15]: 0.0508 µg/mL

B5: P95A (antibody, V domains shown)
VH: B4 VH
VL: B4 VL with A93G, P95A
notes: also called 15G11.v5 P95A (CDR-L3) IgG
Kd [10]: 94 nM | Kd [11]: 258 nM | Kd [12]: 29 nM | Kd [13]: 57 nM | EC50 [14]: 0.0106 µg/mL | EC50 [15]: 0.0406 µg/mL

B6: Q89A (antibody, V domains shown)
VH: B4 VH
VL: B4 VL with Q89A, A93G
notes: also called 15G11.v5 Q89A (CDR-L3) IgG
Kd [10]: 212 nM | Kd [11]: 591 nM | Kd [12]: 125 nM | Kd [13]: 268 nM | EC50 [14]: 0.03 µg/mL | EC50 [15]: 0.506 µg/mL

B8: hu7A4.v15.Fab (Fab, V domains shown)
VH: EVQLVQSGAEVKKPGASVKVSCKGSGYTFTDYAMHWVRQAPGQGLEWMGGISTYFGRTNYNQKFKGRVTMTVDTSISTAYMELSRLRSDDTAVYYCARGLSGNYVMDYWGQGTTVTVSS
VL: DIVMTQSPDSLAVSLGERATINCRASESVDSYGNSFMHWYQQKPGQPPKLLIYRASNLESGVPDRFSGSGSRTDFTLTISSLQAEDVAVYYCQQSNEAPPTFGQGTKLEIK
notes: Fab
koff [16]: 0.000317 s⁻¹ | kon [16]: 910000 M⁻¹ s⁻¹ | koff [17]: 0.00162 s⁻¹ | kon [17]: 378000 M⁻¹ s⁻¹ | Kd [18]: 0.4 nM | Kd [19]: 4.3 nM | Cy/hu ratio [20]: 11

B9: Q90A (Fab, V domains shown)
VH: B8 VH
VL: B8 VL with Q94A
notes: also called 7A4.v15 Q90A (CDR-L3) Fab
Kd [18]: 130 nM | Kd [19]: 760 nM

Second part, the binder after the results:

IC50, inhibition of Abeta x-40 production in primary mouse cortical neurons [3]: 1.7 nM
B2: bispecific antibody TfR^2/6266 (bispecific antibody, V domains shown)
VH 1: B4 VH
VL 1: B4 VL with W92A, A93G
VH 2: B1 VH
VL 2: B1 VL

binding result [8]: binds | binding result [9]: binds
B3: 4C2 (antibody, V domains shown)
VH: QVQLQQPGSELVRPGASVKLSCKASGYTFTSYWMHWVKQRHGQGLEWIGNIYPGSGSTKYDEKFKSKGTLTVDTSSSTAYMHLSSLTSEDSAVYYCTRGGYDSRAWFAHWGQGTLVTVSA
VL: DIVLTQSPASLAVSLGQRATISCRARQSVSTSSYSFMHWYQQKPGQPPKLLIKYASIQESGVPARFSGSGSGTDFTLNILPVEEEDTATYYCQHTWEIPFTFGSGTNLEIK
notes: Mouse hybridoma antibody; also called clone 4C2

binding result [8]: binds | binding result [9]: binds
B7: 15D2 (antibody, V domains shown)
VH: QVQLQQSGPELVRPGVSVKISCKGSGYTVTDYAMHWVKQSHAKSLEWIGVISFYSGKTNYNQKFMGKATMTVDKSSSTAYMELARLTSEDSAIYYCARGLSGNYVMDYWGQGTSVTVSS
VL: DIVLTQSPASLAVSLGQRATISCRASESVDSYGNSFMHWYQQKPGQPPKLLIYRASNLESGIPARFSGSGSRTDFTLTINPVEADDVATYYCQQSNEGPPTFGGGTKLEIK
notes: Mouse hybridoma antibody; also called clone 15D2

binding result [9]: binds | binding result [21]: binds
B10: 13C3 (antibody, V domains shown)
VH: QVQLQQPGAELVKPGASVKLSCKASGYTFASYWMHWVKQRPGQGLEWIGEINPINGRTNYSEKFKKKATLTVDKSSSTAYMQLSSLTSEDSAVYYCARGTRAYHYWGQGTSVTVSS
VL: DIQMTQSPASLSVSVGETVTITCRASDNIYSNLAWYQQKQGKSPQLLVYAATNLADGVPSRFSGSGSGTQYSLKINSLQSEDFGSYYCQHFWGTPLMFGSGTKLELK
notes: Mouse hybridoma antibody; also called clone 13C3

binding result [9]: binds | binding result [21]: binds
B11: 16G5 (antibody, V domains shown)
VH: B10 VH with K13R, S17A, A30T, I54T, S61N, K63N, K66S, Y105F
VL: B10 VL with M4L, S7T, D27E, N53D, S63R, M97T, S100A, K107I
notes: Mouse hybridoma antibody; also called clone 16G5

EC50 (read off the curve) [22]: ~0.005 µg/mL | Kd [23]: 0.58 nM | Kd [24]: 7.8 nM | Kd [25]: 0.561 nM | Kd [26]: 7.8 nM | EC50 [27]: 0.0148 µg/mL | EC50 [28]: 0.0142 µg/mL
B12: hu7A4.v15 IgG (antibody, V domains shown)
VH: B8 VH
VL: B8 VL
notes: Human IgG; also called humanized 7A4.v15
